Data as given in the RNAGym collection of RNA variant scans (doi:10.1073/pnas.2313332121).

B1: TPR t1 (parent)
chain: GACCAAUCUGCCCUCAGAGCUCGAGAACAUCUUCGGAUGCAGAGGAGGCAGGCUUCGGUGGCGCGAUAGCGCCAACGUCCUCAACCUCCAAUGCAUCCCACCACAUGAUGAUGCCUGAAGAGCCUUGGUUUUUUG

Variants of: B1
Assay: polymerase ribozyme fitness, log enrichment relative to wild type (log ratio); higher = more active; in vitro selection for triplet polymerase activity
Method in brief: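 Fitness measures genotype enrichment against wild-type enrichment on a logarithmic scale, with inverse-variance-weighted averaging of replicates. The logarithm is base 2, and genotypes were kept only with ≥10 input reads and ≥1 read per output in Illumina sequencing. The sequenced libraries came from one triplicate in vitro selection round, including frozen incubation at −7 °C, of PCR-built, transcribed mutant libraries of each subunit of a heterodimeric triplet polymerase ribozyme.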

Variant	polymerase ribozyme fitness (log ratio)
GACCAAUCUGCCCUCAGAGCUCGAGAACAUCUUCGGAUGCAGAGGAGGCAGGCUUCGGUGACGCGAUAGCGCCAACGUCCUCAUCCUCCAAUGCAUCCCACCACAUGAUGAUGCCUGAAGAGCCUUGGUUUUUUG [G61A A84U]	-0.89
GACCAAUCUGCCCUCAGAGCUCGAGAACAUCUUCGGAUGCAGAGGAGGCAGGCUUCGGUGACGCGAUAGCGCCCACGUCCUCAACCUCCAAUGCAUCCCACCACAUGAUGAUGCCUGAAGAGCCUUGCUUUUUUG [G61A A74C G128C]	-5.31
GACCAAUCUGCCCUCAGAGCUCGAGAACAUCUUCGGAUGCAGAGGAGGCAGGCUUCGGUUGCGCGAUAGCGCCAACGCCCUCAACCUCCCAUGCAUCCCACCACAUGAUGAUGCCUUAAGAGCCUUGGUUUUUUG [G60U U78C A90C G117U]	-4.13
GACCAAUCUGCCCUCAGAGCUCGAGAACAUCUUCGGAUGCAGAGGAGGCAGGCUUCGGUUGCGCGAUAGCGCCAACGUCCUCAACCUCCAAUGCAUCCCACCACAUGAUGAUGCCUGAAGAGCCUUGGUUUCUUG [G60U U132C]	-0.354
GACCAAUCUGCCCUCAGAGCUCGAGAACAUCUUCGGAUGCAGAGGAGGCAGGCUUCGGUGACGCGAUAGCGCCUACGUCCUCAACCUCCAAUGCAUCCCAGCACAUGAUGAUGCCUGAACAGCCUUGGUUUUUUG [G61A A74U C101G G120C]	-2.7
GACCAAUCUGCCCUCAGAGCUCGAGAACAUCUUCGGAUGCAGAGGAGGCAGGCUUCGGUGACGCGAUAGCGCCAACGUCCUCUACCUCCGAUGCAUCCCACCACAUGAUGAUGCCUGAAGAGCCUUGGUUUUUUG [G61A A83U A90G]	0.0238
GACCAAUCUGCCCUCAGAGCUCGAGAACAUCUUCGGAUGCAGAGGAGGCAGGCUUCGGUGAGGCGAUAGCGCCAGCGUCCUCAACCUCCAAUGCUUCCCACCACAUGAUGAUGCCUGAAGCGCCUUGGUUUUUUG [G61A C62G A75G A95U A121C]	-5.37
GACCAAUCUGCCCUCAGAGCUCGAGAACAUCUUCGGAUGCAGAGGAGGCAGGCUUCGGUGACGCGAUAGCGCCAACGUCCUCAACCUCCAAUGCAUCCCACCACGUGAUGAUGCCUGAAGAGCCUUGGUUUUUUG [G61A A105G]	-1.89
GACCAAUCUGCCCUCAGAGCUCGAGAACAUCUUCGGAUGCAGAGGAGGCAGGCUUCGGUUGCGCGAUAGCGCCAACGUCCUCAACCUCCAAUGCAUCCCACCACAAGAUGAUGCCUGAAGAGCCUUGGUUUUUUG [G60U U106A]	-0.529
GACCAAUCUGCCCUCAGAGCUCGAGAACAUCUUCGGAUGCAGAGGAGGCAGGCUUCGGUUGCGCGAUAGCGCCAACGUCCUCAACCUCCAAUGCAUCCCACCACAUGAUGAUGCCUGAAGAGCCUUGGUAUUUUG [G60U U130A]	-0.92
GACCAAUCUGCCCUCAGAGCUCGAGAACAUCUUCGGAUGCAGAGGAGGCAGGCUUCGGUUGCGCGAUAGCGCCAACGUCCUCAACCUCCAAUGCAUCCCACCACAUGAUGAUGCCUGAAGAGCCUUGGUGUUUUG [G60U U130G]	-0.482
GACCAAUCUGCCCUCAGAGCUCGAGAACAUCUUCGGAUGCAGAGGAGGCAGGCUUCGGUGACGCGAUAGCGCCAACGUCCUCAACCUCCAAUGCAUCCCACCACAUGAUGAUGCCUGAAGCGCCUUGGUUUUUUG [G61A A121C]	1.95
GACCAAUCUGCCCUCAGAGCUCGAGAACAUCUUCGGAUGCAGAGGAGGCAGGCUUCGGUGACGCGAUAGAGCCAACGUCCUCAACCUCCAAUGCAUCCCACCACAUGAUGAUGCCUGAAGAGCCUUGGUUUUUUG [G61A C70A]	-3.99
GACCAAUCUGCCCUCAGAGCUCGAGAACAUCUUCGGAUGCAGAGGAGGCAGGCUUCGGUGACGCGAUAGUGCCAACGUCCUCAACCUCCAAUGCAUCCCACCACAUGAUGAUGCCUGAAGAGCCUUGGUUUUUUG [G61A C70U]	-0.854
GACCAAUCUGCCCUCAGAGCUCGAGAACAUCUUCGGAUGCAGAGGAGGCAGGCUUCGGUUGCGCGAUAGCGCCAACGGACUCAACCUCCAAUGCAUCCCACCACAUGAUAAUGCCUGAAGAGCCUCGGUUUUUUG [G60U U78G C79A G110A U126C]	-4.68
GACCAAUCUGCCCUCAGAGCUCGAGAACAUCUUCGGAUGCAGAGGAGGCAGGCUUCGGUGACGCGCUAGCGCCAACGCCCUCAACCUGCAAUGCAUCCCACCACAUGAUGAUGCCUGAAGAGCCUUGGUUUUUUG [G61A A66C U78C C88G]	-2.23
GACCAAUCUGCCCUCAGAGCUCGAGAACAUCUUCGGAUGCAGAGGAGGCAGGCUUCGGUGACGCGAUAGCGCCCACGUCCUCAACCUCCAAUGCAUCCCACCACAUGAUGAAGCCUGAAGAGCCUUGGUUUUUUG [G61A A74C U112A]	-2.06
GACCAAUCUGCCCUCAGAGCUCGAGAACAUCUUCGGAUGCAGAGGAGGCAGGCUUCGGUUGCGCGAUAGCGCCAACGUCCUCAACCUCCAAUGCAUCCCACCACAUGAUGAUGCCUGAAGAGCCUUAGUUUUUUG [G60U G127A]	-0.768
GACCAAUCUGCCCUCAGAGCUCGAGAACAUCUUCGGAUGCAGAGGAGGCAGGCUUCGGUGACGCGAUAGCGCCAACGUCCUCUACCUCCAAUGCAUCCCACCACAUGAUGAUGCCUCAAGAGCCUUGGUUUUUUG [G61A A83U G117C]	-4.17
GACCAAUCUGCCCUCAGAGCUCGAGAACAUCUUCGGAUGCAGAGGAGGCAGGCUUCGGUUGCGCGAUAGCGCCAACGUCCUCAACCUCCAAUGCAUCCCACCACAUGAUGAUGCCUGAAGAGCCUUGUUUUUUUG [G60U G128U]	-2.12
GACCAAUCUGCCCUCAGAGCUCGAGAACAUCUUCGGAUGCAGAGGAGGCAGGCUUCGGUUGCGCGAUAGCGCCAACGUCCUCAACCUCCAAUGCAUCCCACCACAUGAUGAUGCCUGAAGAGCCUUGAUUUUUUG [G60U G128A]	-1.69
